Test results taken from patent US20080009025A1, “PROTEIN KINASE REGULATION” (priority 1999, published 2008).

Target: PIFtide (24 residue synthetic peptide encompassing the PDK1 binding site on PIF) (human)
Assay: method not stated

Sequence of PIFtide (24 residue synthetic peptide encompassing the PDK1 binding site on PIF) (human) (peptide, as listed by the source): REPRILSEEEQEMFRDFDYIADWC

fold decrease in affinity (against wild type PDK1): 10 fold
Substance: GST-PDK1[K115A] (from UniProt O15530 1-556) (enzyme)
